Data as given in the supplement of paper PMC6757056.
± gives the standard deviation of the averaged measurements.

B1: library; a variant is named by its letters at N, in order (parent)
chain: GCUGUCACCGAGAAACUGUGAAGUAUAUCUUAAACCUGGGCACUUAAAAGAUAUAUGGAGUUAGUAGUGCAACCUGCUCGGUCUGAUGAGUCCNNNNNNGGACGAAACAGC

Key:
[1] = variants of: B1; assay: normalized RNA/DNA level without ligand (relative to sTRSVctl = 100) (log10 (% of sTRSVctl)); HEK293T; ligand: cyclic di-GMP (c-di-GMP-II aptamer); higher = less ribozyme self-cleavage, higher mRNA level; conditions: reporter: mCherry (pCS4076), ligand present: no
Summary of the method: (§1)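 Library plasmids encoding reporter-linked ribozyme switches (mCherry, or eGFP for some folinic acid experiments) were transfected into HEK293T at 4 µg per 6-well well. Ligand, when used, was added 1 h before transfection. Total RNA was extracted with EDTA 72 h later, then reverse-transcribed, amplified, barcoded and sequenced. RNA level was RNA reads over DNA reads, divided by a spiked-in non-cleaving control (or the top 25 sequences), ×100, log10; only sequences with ≥100 DNA reads were kept.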

[2] = variants of: B1; assay: normalized RNA/DNA level with ligand (relative to sTRSVctl = 100) (log10 (% of sTRSVctl)); HEK293T; ligand: cyclic di-GMP (c-di-GMP-II aptamer); ligand concentration (+) RNA-Seq: 1 mM; higher = less ribozyme self-cleavage, higher mRNA level; conditions: reporter: mCherry (pCS4076), ligand present: yes
Summary of the method: as §1

Variant	normalized RNA/DNA level without ligand (log10) [1]	normalized RNA/DNA level with ligand (log10) [2]
UCAUAU	1.54 ± 0.037	1.72 ± 0.13
UGACAA	1.69 ± 0.018	1.8 ± 0.11
GAUAUA	1.53 ± 0.032	1.7 ± 0.1
UAGCAA	1.716 ± 0.0099	1.84 ± 0.087
UUCUUA	1.76 ± 0.095	1.87 ± 0.15
CUAGGG	1.62 ± 0.022	1.78 ± 0.12
CCUUGU	1.75 ± 0.058	1.86 ± 0.1
AUUGAU	1.63 ± 0.029	1.79 ± 0.061
CUACUU	1.56 ± 0.067	1.73 ± 0.059
AUGGGG	1.56 ± 0.12	1.68 ± 0.08
AAUUUU	1.73 ± 0.033	1.85 ± 0.12
GAACUG	1.66 ± 0.059	1.75 ± 0.089
GUGCUG	1.75 ± 0.024	1.86 ± 0.12
AAGAUC	1.6 ± 0.084	1.74 ± 0.097
CGACUU	1.44 ± 0.089	1.63 ± 0.12
CGUGCU	1.64 ± 0.05	1.81 ± 0.063
AACUUA	1.615 ± 0.0013	1.79 ± 0.17
GAAGCC	1.78 ± 0.034	1.89 ± 0.12
GCUCGC	1.82 ± 0.042	1.87 ± 0.097
ACCGUC	1.73 ± 0.028	1.83 ± 0.11
CAUUGU	1.78 ± 0.023	1.88 ± 0.046
UCGGAC	1.66 ± 0.029	1.8 ± 0.13
AGGGUG	1.64 ± 0.046	1.7 ± 0.12
UCUCAA	1.659 ± 0.013	1.83 ± 0.12

Variant	normalized RNA/DNA level without ligand (log10) [1]	normalized RNA/DNA level with ligand (log10) [2]
CGCACU	1.48 ± 0.12	1.71 ± 0.058
AGCCAC	1.7 ± 0.041	1.86 ± 0.087
CUUCGA	1.71 ± 0.026	1.84 ± 0.065
CCUCGC	1.745 ± 0.0039	1.82 ± 0.14
CAUGAU	1.57 ± 0.027	1.73 ± 0.13
CCUAAA	1.4 ± 0.07	1.61 ± 0.14
ACCGAU	1.48 ± 0.072	1.67 ± 0.091
UAUCAG	1.72 ± 0.028	1.84 ± 0.13
CUCGAG	1.71 ± 0.034	1.86 ± 0.11
CCUGCU	1.698 ± 0.0032	1.84 ± 0.1
UGGCUA	1.719 ± 0.003	1.87 ± 0.11
CUACCA	1.621 ± 0.016	1.79 ± 0.12
UCAAGA	1.52 ± 0.0098	1.74 ± 0.098
CUAACG	1.77 ± 0.031	1.85 ± 0.15
AAUAUG	1.61 ± 0.06	1.74 ± 0.11
AUGAGG	1.55 ± 0.044	1.73 ± 0.085
UAGAUU	1.6 ± 0.028	1.79 ± 0.067
AAGGCC	1.759 ± 0.0039	1.83 ± 0.083
CAAGAC	1.64 ± 0.06	1.8 ± 0.082
UGGGGU	1.63 ± 0.056	1.77 ± 0.11
GGGUCC	1.91 ± 0.098	1.95 ± 0.14
CGGGCA	1.81 ± 0.064	1.9 ± 0.13
GCGCAG	1.78 ± 0.023	1.9 ± 0.094
ACAACC	1.67 ± 0.02	1.82 ± 0.1

Variant	normalized RNA/DNA level without ligand (log10) [1]	normalized RNA/DNA level with ligand (log10) [2]
UAGUUC	1.71 ± 0.031	1.89 ± 0.057
GAGUGG	1.84 ± 0.043	1.9 ± 0.12
UUUGAG	1.71 ± 0.038	1.83 ± 0.12
CAGGUU	1.798 ± 0.0047	1.88 ± 0.053
UCUUAC	1.704 ± 0.017	1.86 ± 0.054
UUUUUC	1.78 ± 0.052	1.88 ± 0.14
AUACUC	1.74 ± 0.022	1.87 ± 0.072
UUAACA	1.7 ± 0.019	1.8 ± 0.091
CCAGGA	1.5 ± 0.088	1.71 ± 0.12
UUACUG	1.67 ± 0.016	1.84 ± 0.096
GUAGGG	1.55 ± 0.11	1.71 ± 0.025
AUGAGC	1.62 ± 0.066	1.8 ± 0.082
CUUUCG	1.8 ± 0.046	1.88 ± 0.05
UAGCGG	1.8203 ± 0.00054	1.95 ± 0.067
GUGUAC	1.58 ± 0.025	1.78 ± 0.089
AAUGUA	1.525 ± 0.01	1.64 ± 0.16
UGUGUU	1.665 ± 0.0047	1.82 ± 0.16
UCUAUU	1.63 ± 0.034	1.78 ± 0.094
UCAUCU	1.71 ± 0.052	1.9 ± 0.1
UCAGCA	1.672 ± 0.004	1.82 ± 0.097
AGGCGA	1.56 ± 0.037	1.67 ± 0.13
CGAGUG	1.7 ± 0.049	1.83 ± 0.15
CCGGUC	1.622 ± 0.0071	1.83 ± 0.073
GCAGCG	1.83 ± 0.035	1.92 ± 0.072

Variant	normalized RNA/DNA level without ligand (log10) [1]	normalized RNA/DNA level with ligand (log10) [2]
AUCCUU	1.74 ± 0.042	1.89 ± 0.081
CACUCG	1.82 ± 0.042	1.87 ± 0.11
GCACCA	1.586 ± 0.0036	1.75 ± 0.11
CAGGGG	1.63 ± 0.032	1.74 ± 0.075
GCCUCC	1.71 ± 0.02	1.84 ± 0.091
CUCGAC	1.714 ± 0.0032	1.85 ± 0.069
UAAGCC	1.78 ± 0.024	1.88 ± 0.091
CUACUA	1.47 ± 0.14	1.64 ± 0.072
UCGAUC	1.62 ± 0.032	1.79 ± 0.16
CAGUGU	1.718 ± 0.0057	1.84 ± 0.12
UGCUCU	1.77 ± 0.018	1.92 ± 0.05
CUGCUU	1.6 ± 0.06	1.76 ± 0.09
UCAUAA	1.47 ± 0.065	1.67 ± 0.087
GUUAGU	1.66 ± 0.017	1.8 ± 0.13
AAAGUA	1.42 ± 0.076	1.66 ± 0.12
AGCUUA	1.57 ± 0.055	1.76 ± 0.11
CAAAGG	1.59 ± 0.033	1.75 ± 0.081
GUUAGC	1.72 ± 0.02	1.85 ± 0.12
UCUUGG	1.84 ± 0.039	1.93 ± 0.15
UACCUC	1.79 ± 0.0062	1.93 ± 0.093
UGUGAG	1.7 ± 0.038	1.87 ± 0.07
UGAUUG	1.718 ± 0.017	1.88 ± 0.088
GCCCUC	1.744 ± 0.0049	1.87 ± 0.12
UCUACC	1.798 ± 0.0078	1.88 ± 0.12

Variant	normalized RNA/DNA level without ligand (log10) [1]	normalized RNA/DNA level with ligand (log10) [2]
AACGCA	1.67 ± 0.024	1.83 ± 0.076
AUUUAU	1.74 ± 0.037	1.84 ± 0.073
AGACAG	1.55 ± 0.049	1.75 ± 0.15
UAUCUA	1.683 ± 0.0069	1.81 ± 0.097
UUUUGG	1.82 ± 0.05	1.93 ± 0.13
CUGGGC	1.733 ± 0.0023	1.88 ± 0.09
GAAAGG	1.56 ± 0.041	1.72 ± 0.12
UGUCAC	1.75 ± 0.04	1.87 ± 0.15
CUGUCG	1.73 ± 0.047	1.84 ± 0.14
CAUUGG	1.804 ± 0.0056	1.93 ± 0.15
GCGAAA	1.34 ± 0.099	1.56 ± 0.096
AUAAGC	1.6 ± 0.022	1.77 ± 0.082
CCUGCA	1.67 ± 0.056	1.84 ± 0.058
ACCGGC	1.784 ± 0.0037	1.92 ± 0.12
CAGAUC	1.61 ± 0.03	1.71 ± 0.18
CGAACU	1.48 ± 0.18	1.72 ± 0.042
UGUGGU	1.667 ± 0.012	1.81 ± 0.065
UAGACA	1.73 ± 0.058	1.85 ± 0.15
UAUCCG	1.8 ± 0.022	1.87 ± 0.095
GGUGGC	1.68 ± 0.03	1.83 ± 0.076
